Series [1] deals with HeLa Kyoto. Put plainly: melting temperature (median over replicates), in situ; higher = more thermally stable.
The test system of series [2] is HeLa Kyoto. Put plainly: thermal stability score vs G1/S (z-score of summed log2 fold changes over temperatures); higher = more thermally stable than in G1/S.
[3] abbreviates: cell cycle stage: early G1 (4.5 h after nocodazole release).
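For melting temperature (median over replicates), in situ in this document: HeLa Kyoto cells synchronized by double thymidine or nocodazole block, proteins quantified by TMT10plex mass spectrometry, three independent biological replicates.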
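For thermal stability score vs G1/S (z-score of summed log2 fold changes over temperatures) in this document: synchronized HeLa Kyoto cells, proteins quantified by TMT10plex mass spectrometry, three biological replicates, mitosis taken 0.5 h after nocodazole release, G1/S directly after double thymidine block.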

Chain of LDHAL6A (chain, as listed by the source): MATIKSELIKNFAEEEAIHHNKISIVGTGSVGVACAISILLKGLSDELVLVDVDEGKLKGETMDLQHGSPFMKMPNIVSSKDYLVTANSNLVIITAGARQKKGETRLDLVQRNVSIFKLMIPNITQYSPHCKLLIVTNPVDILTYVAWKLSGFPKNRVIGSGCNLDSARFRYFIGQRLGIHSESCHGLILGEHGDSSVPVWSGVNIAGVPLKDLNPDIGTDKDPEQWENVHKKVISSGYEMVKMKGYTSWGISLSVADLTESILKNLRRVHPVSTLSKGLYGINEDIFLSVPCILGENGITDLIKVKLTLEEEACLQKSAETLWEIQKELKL

In the series on HeLa Kyoto [1] (cell cycle stage: G1/S), LDHAL6A had a melting temperature of 61.6 °C. Further, the thermal stability score in the series on HeLa Kyoto [2] (setting [3]) was -1.33; in the series on HeLa Kyoto [2] (cell cycle stage: mitosis) it was -1.23.

For the substance “MAACRALKAVLVDLSGTLHIEDAAVPGAQEALKRLRGASVIIRFVTNTTKESKQDLLERLRKLEFDISEDEIFTSLTAARSLLERKQVRPMLLVDDRALPDFKGIQTSDPNAVVMGLAPEHFHYQILNQAFRLLLDGAPLIAIHKARYYKRKDGLALGPGPFVTALEYATDTKATVVGKPEKTFFLEALRGTGCEPEEAVMIGDDCRDDVGGAQDVGMLGILVKTGKYRASDEEKINPPPYLTCESFPHAVDHILQHLL [HDHD2]”, the melting temperature with HeLa Kyoto [1] (cell cycle stage: G1/S) stood at 57.3 °C; in the series on HeLa Kyoto [1] (cell cycle stage: mitosis), 59 °C. In addition, the thermal stability score with HeLa Kyoto [2] (setting [3]) was -2.07; in the series with HeLa Kyoto [2] (cell cycle stage: mitosis) it was -2.57.

With “MADVINVSVNLEAFSQAISAIQALRSSVSRVFDCLKDGMRNKETLEGREKAFIAHFQDNLHSVNRDLNELERLSNLVGKPSENHPLHNSGLLSLDPVQDKTPLYSQLLQAYKWSNKLQYHAGLASGLLNQQSLKRSANQMGVSAKRRPKAQPTTLVLPPQYVDDVISRIDRMFPEMSIHLSRPNGTSAMLLVTLGKVLKVIVVMRSLFIDRTIVKGYNENVYTEDGKLDIWSKSNYQVFQKVTDHATTALLHYQLPQMPDVVVRSFMTWLRSYIKLFQAPCQRCGKFLQDGLPPTWRDFRTLEAFHDTCRQ [MED27]”, in the series on HeLa Kyoto [1] (cell cycle stage: G1/S), the melting temperature amounted to 48.5 °C. The thermal stability score is -0.132 with HeLa Kyoto [2] (setting [3]) and 0.247 with HeLa Kyoto [2] (cell cycle stage: mitosis).

In turn, “MAFSQVQCLDDNHVNWRSSESKPEFFYSEEQRLALEALVARGRDAFYEVLKRENIRDFLSELELKRILETIEVYDPGSEDPRGTGPSQGPEDNGVGDGEEASGADGVPIEAEPLPSLEYWPQKSDRSIPQLDLGWPDTIAYRGVTRASVYMQPPIDGQAHIKEVVRKMISQAQKVIAVVMDMFTDVDIFKDLLDAGFKRKVAVYIIVDESNVKYFLHMCERACMHLGHLKNLRVRSSGGTEFFTRSATKFKGALAQKFMFVDGDRAVCGSYSFTWSAARTDRNVISVLSGQVVEMFDRQFQELYLMSHSVSLKGIPMEKEPEPEPIVLPSVVPLVPAGTVAKKLVNPKYALVKAKSVDEIAKISSEKQEAKKPLGLKGPALAEHPGELPELLPPIHPGLLHLERANMFEYLPTWVEPDPEPGSDILGYINIIDPNIWNPQPSQMNRIKIRDTSQASAQHQLWKQSQDSRPRPEPCPPPEPSAPQDGVPAENGLPQGDPEPLPPVPKPRTVPVADVLARDSSDIGWVLELPKEEAPQNGTDHRLPRMAGPGHAPLQRQLSVTQDDPESLGVGLPNGLDGVEEEDDDDYVTLSDQDSHSGSSGRGPGPRRPSVASSVSEEYFEVREHSVPLRRRHSEQVANGPTPPPRRQLSAPHITRGTFVGPQGGSPWAQSRGREEADALKRMQAQRSTDKEAQGQQFHHHRVPASGTRDKDGFPGPPRYRSAADSVQSSTRNAGPAMAGPHHWQAKGGQVPRLLPDPGSPRLAQNARPMTDGRATEEHPSPFGIPYSKLSQSKHLKARTGGSQWASSDSKRRAQAPRDRKDP [FAM83G]” registered a melting temperature in the series on HeLa Kyoto [1] (cell cycle stage: G1/S) of 51.3 °C. Moreover, the thermal stability score in the series with HeLa Kyoto [2] (setting [3]) was 1.03; in the series on HeLa Kyoto [2] (cell cycle stage: mitosis), 0.873.

Consider “MAIAQLATEYVFSDFLLKEPTEPKFKGLRLELAVDKMVTCIAVGLPLLLISLAFAQEISIGTQISCFSPSSFSWRQAAFVDSYCWAAVQQKNSLQSESGNLPLWLHKFFPYILLLFAILLYLPPLFWRFAAAPHICSDLKFIMEELDKVYNRAIKAAKSARDLDMRDGACSVPGVTENLGQSLWEVSESHFKYPIVEQYLKTKKNSNNLIIKYISCRLLTLIIILLACIYLGYYFSLSSLSDEFVCSIKSGILRNDSTVPDQFQCKLIAVGIFQLLSVINLVVYVLLAPVVVYTLFVPFRQKTDVLKVYEILPTFDVLHFKSEGYNDLSLYNLFLEENISEVKSYKCLKVLENIKSSGQGIDPMLLLTNLGMIKMDVVDGKTPMSAEMREEQGNQTAELQGMNIDSETKANNGEKNARQRLLDSSC [PANX1]”, for which the melting temperature was 57.4 °C in the series with HeLa Kyoto [1] (cell cycle stage: G1/S) and 55.7 °C in the series on HeLa Kyoto [1] (cell cycle stage: mitosis). For the same substance, the thermal stability score in the series on HeLa Kyoto [2] (setting [3]) and in the series with HeLa Kyoto [2] (cell cycle stage: mitosis) was -1.3 throughout.

As to “MASASSGPSSSVGFSSFDPAVPSCTLSSAASGIKRPMASEVLEARQDSYISLVPYASGMPIKKIGHRSVDSSGETTYKKTTSSALKGAIQLGITHTVGSLSTKPERDVLMQDFYVVESIFFPSEGSNLTPAHHYNDFRFKTYAPVAFRYFRELFGIRPDDYLYSLCSEPLIELCSSGASGSLFYVSSDDEFIIKTVQHKEAEFLQKLLPGYYMNLNQNPRTLLPKFYGLYCVQAGGKNIRIVVMNNLLPRSVKMHIKYDLKGSTYKRRASQKEREKPLPTFKDLDFLQDIPDGLFLDADMYNALCKTLQRDCLVLQSFKIMDYSLLMSIHNIDHAQREPLSSETQYSVDTRRPAPQKALYSTAMESIQGEARRGGTMETDDHMGGIPARNSKGERLLLYIGIIDILQSYRFVKKLEHSWKALVHDGDTVSVHRPGFYAERFQRFMCNTVFKKIPLKPSPSKKFRSGSSFSRRAGSSGNSCITYQPSVSGEHKAQVTTKAEVEPGVHLGRPDVLPQTPPLEEISEGSPIPDPSFSPLVGETLQMLTTSTTLEKLEVAESEFTH [PIP5K1A]”, the figures for the melting temperature with HeLa Kyoto [1] (cell cycle stage: G1/S) and in the series on HeLa Kyoto [1] (cell cycle stage: mitosis) were 51.4 °C and 51.5 °C, respectively. Also, the thermal stability score in the series with HeLa Kyoto [2] (setting [3]) stood at 1.38; in the series with HeLa Kyoto [2] (cell cycle stage: mitosis), 1.13.

For the substance “MATKEKLQCLKDFHKDILKPSPGKSPGTRPEDEAEGKPPQREKWSSKIDFVLSVAGGFVGLGNVWRFPYLCYKNGGGAFLIPYFIFLFGSGLPVFFLEIIIGQYTSEGGITCWEKICPLFSGIGYASVVIVSLLNVYYIVILAWATYYLFQSFQKELPWAHCNHSWNTPHCMEDTMRKNKSVWITISSTNFTSPVIEFWERNVLSLSPGIDHPGSLKWDLALCLLLVWLVCFFCIWKGVRSTGKVVYFTATFPFAMLLVLLVRGLTLPGAGAGIKFYLYPDITRLEDPQVWIDAGTQIFFSYAICLGAMTSLGSYNKYKYNSYRDCMLLGCLNSGTSFVSGFAIFSILGFMAQEQGVDIADVAESGPGLAFIAYPKAVTMMPLPTFWSILFFIMLLLLGLDSQFVEVEGQITSLVDLYPSFLRKGYRREIFIAFVCSISYLLGLTMVTEGGMYVFQLFDYYAASGVCLLWVAFFECFVIAWIYGGDNLYDGIEDMIGYRPGPWMKYSWAVITPVLCVGCFIFSLVKYVPLTYNKTYVYPNWAIGLGWSLALSSMLCVPLVIVIRLCQTEGPFLVRVKYLLTPREPNRWAVEREGATPYNSRTVMNGALVKPTHIIVETMM [SLC6A6]”, the melting temperature with HeLa Kyoto [1] (cell cycle stage: G1/S) came out at 57.6 °C; in the series on HeLa Kyoto [1] (cell cycle stage: mitosis), 57.2 °C. Further, the thermal stability score is -2.77 in the series with HeLa Kyoto [2] (setting [3]) and -2.51 in the series with HeLa Kyoto [2] (cell cycle stage: mitosis).

For “MAYHSGYGAHGSKHRARAAPDPPPLFDDTSGGYSSQPGGYPATGADVAFSVNHLLGDPMANVAMAYGSSIASHGKDMVHKELHRFVSVSKLKYFFAVDTAYVAKKLGLLVFPYTHQNWEVQYSRDAPLPPRQDLNAPDLYIPTMAFITYVLLAGMALGIQKRFSPEVLGLCASTALVWVVMEVLALLLGLYLATVRSDLSTFHLLAYSGYKYVGMILSVLTGLLFGSDGYYVALAWTSSALMYFIVRSLRTAALGPDSMGGPVPRQRLQLYLTLGAAAFQPLIIYWLTFHLVR [YIF1A]”, in the series on HeLa Kyoto [1] (cell cycle stage: G1/S), the melting temperature stood at 57.2 °C. Besides, the values for the thermal stability score with HeLa Kyoto [2] (setting [3]) and with HeLa Kyoto [2] (cell cycle stage: mitosis) were -0.13 and -2.04, respectively.

The substance “MDLAANEISIYDKLSETVDLVRQTGHQCGMSEKAIEKFIRQLLEKNEPQRPPPQYPLLIVVYKVLATLGLILLTAYFVIQPFSPLAPEPVLSGAHTWRSLIHHIRLMSLPIAKKYMSENKGVPLHGGDEDRPFPDFDPWWTNDCEQNESEPIPANCTGCAQKHLKVMLLEDAPRKFERLHPLVIKTGKPLLEEEIQHFLCQYPEATEGFSEGFFAKWWRCFPERWFPFPYPWRRPLNRSQMLRELFPVFTHLPFPKDASLNKCSFLHPEPVVGSKMHKMPDLFIIGSGEAMLQLIPPFQCRRHCQSVAMPIEPGDIGYVDTTHWKVYVIARGVQPLVICDGTAFSEL [C6ORF89]” registered a melting temperature in the series on HeLa Kyoto [1] (cell cycle stage: G1/S) of 53.2 °C. Besides, the thermal stability score with HeLa Kyoto [2] (setting [3]) was 0.0285; in the series on HeLa Kyoto [2] (cell cycle stage: mitosis), -2.22.

As for “MEAAVAPGRDAPAPAASQPSGCGKHNSPERKVYMDYNATTPLEPEVIQAMTKAMWEAWGNPSSPYSAGRKAKDIINAARESLAKMIGGKPQDIIFTSGGTESNNLVIHSVVKHFHANQTSKGHTGGHHSPVKGAKPHFITSSVEHDSIRLPLEHLVEEQVAAVTFVPVSKVSGQAEVDDILAAVRPTTRLVTIMLANNETGIVMPVPEISQRIKALNQERVAAGLPPILVHTDAAQALGKQRVDVEDLGVDFLTIVGHKFYGPRIGALYIRGLGEFTPLYPMLFGGGQERNFRPGTENTPMIAGLGKAAELVTQNCEAYEAHMRDVRDYLEERLEAEFGQKRIHLNSQFPGTQRLPNTCNFSIRGPRLQGHVVLAQCRVLMASVGAACHSDHGDQPSPVLLSYGVPFDVARNALRLSVGRSTTRAEVDLVVQDLKQAVAQLEDQA [SCLY]”, the melting temperature in the series with HeLa Kyoto [1] (cell cycle stage: G1/S) was determined as 55.4 °C; in the series with HeLa Kyoto [1] (cell cycle stage: mitosis) it was 51.5 °C. For the same substance, the thermal stability score is -0.479 with HeLa Kyoto [2] (setting [3]) and -0.778 in the series on HeLa Kyoto [2] (cell cycle stage: mitosis).

For the substance “MEFDCEGLRRLLGKYKFRDLTVEELRNVNVFFPHFKYSMDTYVFKDSSQKDLLNFTGTIPVMYQGNTYNIPIRFWILDSHPFAPPICFLKPTANMGILVGKHVDAQGRIYLPYLQNWSHPKSVIVGLIKEMIAKFQEELPMYSLSSSDEARQVDLLAYIAKITEGVSDTNSKSWANHENKTVNKITVVGGGELGIACTLAISAKGIADRLVLLDLSEGTKGATMDLEIFNLPNVEISKDLSASAHSKVVIFTVNSLGSSQSYLDVVQSNVDMFRALVPALGHYSQHSVLLVASQPVEIMTYVTWKLSTFPANRVIGIGCNLDSQRLQYIITNVLKAQTSGKEVWVIGEQGEDKVLTWSGQEEVVSHTSQVQLSNRAMELLRVKGQRSWSVGLSVADMVDSIVNNKKKVHSVSALAKGYYDINSEVFLSLPCILGTNGVSEVIKTTLKEDTVTEKLQSSASSIHSLQQQLKL [UEVLD]”, the melting temperature in the series on HeLa Kyoto [1] (cell cycle stage: G1/S) came to 49.9 °C; in the series on HeLa Kyoto [1] (cell cycle stage: mitosis), 50.1 °C. The thermal stability score was -0.401 with HeLa Kyoto [2] (setting [3]) and 0.298 with HeLa Kyoto [2] (cell cycle stage: mitosis).

“MELWPCLAAALLLLLLLVQLSRAAEFYAKVALYCALCFTVSAVASLVCLLRHGGRTVENMSIIGWFVRSFKYFYGLRFEVRDPRRLQEARPCVIVSNHQSILDMMGLMEVLPERCVQIAKRELLFLGPVGLIMYLGGVFFINRQRSSTAMTVMADLGERMVRENLKVWIYPEGTRNDNGDLLPFKKGAFYLAVQAQVPIVPVVYSSFSSFYNTKKKFFTSGTVTVQVLEAIPTSGLTAADVPALVDTCHRAMRTTFLHISKTPQENGATAGSGVQPAQ [AGPAT2]” yielded a melting temperature in the series with HeLa Kyoto [1] (cell cycle stage: mitosis) of 52.2 °C. The thermal stability score in the series on HeLa Kyoto [2] (setting [3]) was -0.0581; in the series on HeLa Kyoto [2] (cell cycle stage: mitosis), 0.548.

Turning to “MWAFSELPMPLLINLIVSLLGFVATVTLIPAFRGHFIAARLCGQDLNKTSRQQIPESQGVISGAVFLIILFCFIPFPFLNCFVKEQCKAFPHHEFVALIGALLAICCMIFLGFADDVLNLRWRHKLLLPTAASLPLLMVYFTNFGNTTIVVPKPFRPILGLHLDLGILYYVYMGLLAVFCTNAINILAGINGLEAGQSLVISASIIVFNLVELEGDCRDDHVFSLYFMIPFFFTTLGLLYHNWYPSRVFVGDTFCYFAGMTFAVVGILGHFSKTMLLFFMPQVFNFLYSLPQLLHIIPCPRHRIPRLNIKTGKLEMSYSKFKTKSLSFLGTFILKVAESLQLVTVHQSETEDGEFTECNNMTLINLLLKVLGPIHERNLTLLLLLLQILGSAITFSIRYQLVRLFYDV [DPAGT1]”, the thermal stability score was -0.912 in the series on HeLa Kyoto [2] (setting [3]) and -2.08 with HeLa Kyoto [2] (cell cycle stage: mitosis).

The record behind these values is the supplement of paper PMC5998384.
